Where “and” joins values, the source holds several entries; their conditions need not be identical. Equal entries are not always repeated.
Biological target: recombinant SARS-CoV-2 RBD (His-tagged SARS-CoV-2 RBD fusion protein) (SARS-CoV-2), P0DTC2
Conditions: remark: other sources report otherwise

B1: DC-SIGN.Fc protein, Q9NNX6 59-404 (Fc fusion)
chain: QVSKVPSSISQEQSRQDAIYQNLTQLKAAVGELSEKSKLQEIYQELTQLKAAVGELPEKSKLQEIYQELTRLKAAVGELPEKSKLQEIYQELTWLKAAVGELPEKSKMQEIYQELTRLKAAVGELPEKSKQQEIYQELTRLKAAVGELPEKSKQQEIYQELTRLKAAVGELPEKSKQQEIYQELTQLKAAVERLCHPCPWEWTFFQGNCYFMSNSQRNWHDSITACKEVGAQLVVIKSAEEQNFLQLQSSRSNRFTWMGLSDLNQEGTWQWVDGSPLLPSFKQYWNRGEPNNVGEEDCAEFSGNGWNDDKCNLAKFWICKKSAASCSRDEEQFLSPAPATPNPPPA
With B1 the Kd was 18.7 µM and 16.1 µM, the koff was 0.000588 s⁻¹ and 0.000614 s⁻¹ and the kon was 339 M⁻¹ s⁻¹.

Source: US20230365640A1
